Patent US6635421 (CHILDREN S MEDICAL CENTER, dated 2003)

T1: Human NP-2 (neuropilin-2) (human, UniProt O60462 21-931)
T1 sequence: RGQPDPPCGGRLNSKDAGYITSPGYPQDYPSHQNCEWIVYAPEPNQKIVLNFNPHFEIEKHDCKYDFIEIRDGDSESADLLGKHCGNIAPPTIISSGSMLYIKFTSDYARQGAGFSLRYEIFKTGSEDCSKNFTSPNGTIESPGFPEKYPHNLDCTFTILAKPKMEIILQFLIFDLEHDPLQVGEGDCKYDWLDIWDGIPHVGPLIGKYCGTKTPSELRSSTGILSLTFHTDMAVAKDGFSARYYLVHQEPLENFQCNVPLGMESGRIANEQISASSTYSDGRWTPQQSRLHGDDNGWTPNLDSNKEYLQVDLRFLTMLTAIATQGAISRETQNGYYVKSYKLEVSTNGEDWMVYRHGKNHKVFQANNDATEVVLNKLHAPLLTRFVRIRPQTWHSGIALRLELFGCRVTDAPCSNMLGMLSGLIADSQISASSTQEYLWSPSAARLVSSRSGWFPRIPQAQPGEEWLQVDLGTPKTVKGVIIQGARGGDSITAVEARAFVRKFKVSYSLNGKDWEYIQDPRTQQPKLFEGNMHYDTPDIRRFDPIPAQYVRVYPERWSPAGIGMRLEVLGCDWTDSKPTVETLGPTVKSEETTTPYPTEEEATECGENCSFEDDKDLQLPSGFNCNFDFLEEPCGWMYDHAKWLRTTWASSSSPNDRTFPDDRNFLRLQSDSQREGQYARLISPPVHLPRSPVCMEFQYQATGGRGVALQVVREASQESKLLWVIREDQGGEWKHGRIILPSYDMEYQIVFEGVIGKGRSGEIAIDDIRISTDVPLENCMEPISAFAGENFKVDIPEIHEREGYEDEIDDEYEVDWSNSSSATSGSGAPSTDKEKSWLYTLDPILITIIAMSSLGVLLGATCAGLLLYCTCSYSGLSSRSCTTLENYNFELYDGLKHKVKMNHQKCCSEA

B1: Human recombinant VEGF165 (ligand, UniProt P15692-4 27-191, looked up)
chain: APMAEGGGQNHHEVVKFMDVYQRSYCHPIETLVDIFQEYPDEIEYIFKPSCVPLMRCGGCCNDEGLECVPTEESNITMQIMRIKPHQGQHIGEMSFLQHNKCECRPKKDRARQENPCGPCSERRKHLFVQDPQTCKCSCKNTDSRCKARQLELNERTCRCDKPRR
modifications: radio-iodinated (125I, IODO-BEADS) in the binding and cross-linking experiments; unlabelled when coupled to Sepharose or used as competitor
notes: mature
B2: Human recombinant VEGF121 (ligand, UniProt P15692-9 27-147, looked up)
chain: APMAEGGGQNHHEVVKFMDVYQRSYCHPIETLVDIFQEYPDEIEYIFKPSCVPLMRCGGCCNDEGLECVPTEESNITMQIMRIKPHQGQHIGEMSFLQHNKCECRPKKDRARQEKCDKPRR
modifications: radio-iodinated (125I, IODO-BEADS)
notes: mature

How the values were obtained:
[1] = molecular target: T2, Human VEGF165R/NP-1 (VEGF165 receptor / neuropilin-1) (human, UniProt O14786 22-923); test: Scatchard analysis (LIGAND program) of 125I-VEGF165 binding to PAE/NP-1 cells
T2 construct: 923 amino acid open reading frame; also called clone A2

[2] = molecular target: T2, Human VEGF165R/NP-1 (VEGF165 receptor / …); test: Scatchard analysis of 125I-VEGF165 binding to independently generated PAE/NP-1 clones
[3] = molecular target: T2, Human VEGF165R/NP-1 (VEGF165 receptor / …); test: cell-based or functional assay
[4] = molecular target: T1, Human NP-2 (neuropilin-2); test: expression cloning: COS-7 cells transfected with single clones screened for 125I-VEGF165 binding (seven positive clones, one of them NP-2)
Procedure: The E. coli were sub-divided into 50 separate pools and plated onto 50 LB ampicillin dishes, with each pool representing approximately 100 clones. […] The seven positive plasmid clones were amplified and their DNA was analyzed by restriction enzyme digestion. […] One clone from each group was submitted for automated DNA sequencing.

[5] = molecular target: T2, Human VEGF165R/NP-1 (VEGF165 receptor / …); test: cross-linking of 125I-VEGF121 to PAE/NP-1 cells, SDS-PAGE, autoradiography
Procedure: The binding was carried out in the presence of 1 μg/ml heparin. […] The cells were lysed and proteins were resolved by 6% SDS-PAGE. The polyacrylamide gel was dried and exposed to X-ray film.

Row | Binder | Kd [1] [nM] | Kd [2] [nM] | 231 breast carcinoma cell motility (Boyden chamber motility assay) [3] [fold] | binding result [4] | binding result [5]
1 | B1 | 0.32 | 0.3 | 2 | binds | –
2 | B2 | – | – | – | – | no binding (tested: 10 ng/ml)
